Measurements taken from paper PMC2323325, “Conserved Regulation of MAP Kinase Expression by PUF RNA-Binding Proteins”.

Key:
[1] = molecular target: T1, FBF-2 (Caenorhabditis elegans, UniProt Q09312 162-566); experiment: EMSA; Not stated; gel shift assays performed as described in ref 49; details: protein: recombinant
T1 sequence: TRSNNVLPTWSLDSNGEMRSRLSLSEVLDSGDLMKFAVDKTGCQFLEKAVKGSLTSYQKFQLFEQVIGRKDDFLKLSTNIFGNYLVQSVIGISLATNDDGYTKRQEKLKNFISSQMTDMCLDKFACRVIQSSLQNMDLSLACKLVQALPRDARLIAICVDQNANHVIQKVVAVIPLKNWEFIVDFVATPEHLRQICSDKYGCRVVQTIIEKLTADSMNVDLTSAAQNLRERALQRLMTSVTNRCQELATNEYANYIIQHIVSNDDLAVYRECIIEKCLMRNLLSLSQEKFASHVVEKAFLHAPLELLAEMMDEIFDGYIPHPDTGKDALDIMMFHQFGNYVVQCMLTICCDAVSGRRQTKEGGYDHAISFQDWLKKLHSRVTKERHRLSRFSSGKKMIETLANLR

[2] = molecular target: PUM2 (Homo sapiens, UniProt Q8TB72 706-1048); experiment: as above; details: protein: recombinant
Chain of PUM2 (Q8TB72 706-1048): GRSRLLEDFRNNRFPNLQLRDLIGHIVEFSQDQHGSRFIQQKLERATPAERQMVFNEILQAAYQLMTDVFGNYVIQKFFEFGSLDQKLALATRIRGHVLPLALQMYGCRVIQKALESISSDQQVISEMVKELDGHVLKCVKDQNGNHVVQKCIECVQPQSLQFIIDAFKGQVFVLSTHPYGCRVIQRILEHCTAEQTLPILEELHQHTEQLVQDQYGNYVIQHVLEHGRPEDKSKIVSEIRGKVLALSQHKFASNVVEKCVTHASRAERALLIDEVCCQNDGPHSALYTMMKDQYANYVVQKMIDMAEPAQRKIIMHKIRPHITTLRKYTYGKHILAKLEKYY

## AGUUUCUUUUUCGAUGUAUCAUAAUCCA (ssRNA) [mpk-1 FBEa]
[1]
  Kd: ~93 nM

## AGGAGAGAAGAAAGUGUAGAUAGUUAAA (ssRNA) [p38alpha NREb]
[2]
  binding result: binds

## UUCAUGAAAAUAAAUGUACAUCUUCUAU (ssRNA) [Erk2 NRE]
[2]
  binding result: binds

## AGUAUAUUUGAAACUGUAAAUAUGUUUG (ssRNA) [p38alpha NREa]
[2]
  binding result: binds

## AGUUUCUUUUUCGAACAAUCAUAAUCCA (ssRNA) [mpk-1 FBEa*]
[1]
  binding result: no binding

## UAUUUUACGUAUUUUGUAAUAUAUUCAU (ssRNA) [mpk-1 FBEb]
[1]
  Kd: ~320 nM

## UAUUUUACGUAUUUACAAAUAUAUUCAU (ssRNA) [mpk-1 FBEb*]
[1]
  binding result: no binding
